Experiment: yeast display, Sf9 membrane polyspecificity reagent, FACS + sequencing; frameworks hold sequencing errors
Procedure, shortened: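 Galactose-induced (36–48 hours) yeast carrying a synthetic nanobody display library were exposed to 10% biotinylated, detergent-solubilized Sf9 membrane reagent at 4 °C for 1 hour. FACS followed streptavidin microbead enrichment, using low and high (top ~1%) gates for expression (anti-HA) and reagent binding (streptavidin). Colony PCR, MiSeq 2 × 250 sequencing and CDR-length filtering followed. Labels for polyreactivity reflect the gate of origin.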

Sequence	polyreactivity (PSR sort gate)
QVQLVESGGGLVQAGGSLRLSCAASGRIFSQNTMGWYRQAPGKERELVATITTSDGSTSYADSVKGRFTISRDNAKNTVYLQMNSLKPEDTAVYYCNARLSKYEGYWVWQYDYWGQGTQVTVSS	low polyreactivity
QVQLVESGGGLVQAGGSLRLSCAASGRIFSRNAMGWYRQAPGKDRELVAAISRSGTSTYYADSGKGRFTISRDNAKNTVYLQMNSLKPEDTAVYYCAADSWSRSVNYYYWGQGTQVTVSS	low polyreactivity
QVQLVESGGGLVQAGGSLRLSCAASGRIFSRNAMGWYRQAPGKERELVAAISRSGTRTNYADSVKGRFTISRDNAKYTVYLQMNSLKPEDTAVYYCATAAFIVGSSRTYDYWGQGTQVTVSS	high polyreactivity
QVQLVESGGGLVQAGGSLRLSCAASGRIFSRNAMGWYRQAPRKEREFVAAISRRGTSTYYADSVKGRFTISRDNAKNTVYLQMHSLKPEDTAVYYCNAGGSPWYKPVYYRALYDYWGQGTQVTVSS	high polyreactivity
QVQLVESGGGLVQAGGSLRLSCAASGRIFSRNARGWYRQATGKERELVAAITARSGTTFYADSVKGRFTISRDNAKNTVYLQMNSLKPEDTAVYYCAADGSPSLLDYWGQGTQVTVSS	high polyreactivity
QVQLVESGGGLVQAGGSLRLSCAASGRIFSRYAMGWYRQAPGKERELVAAINWSGGSTYYADSVKGRFTISRDNAKNTVYLQMNSLKPEDTAVYYCAADIYPLAIGAFRDDYWGQGTQVTVSS	low polyreactivity
QVQLVESGGGLVQAGGSLRLSCAASGRIFSRYAMGWYRQAPGKERELVAAITSNGGSTYYADSVKGRFTISRDNAKNTVYLQMNSLKPEDTAVYYCAAKSYWLHYDYWGQGTQVTVSS	high polyreactivity
QVQLVESGGGLVQAGGSLRLSCAASGRIFSRYAMGWYRQAPGKERELVASIRSGGSTYYADSVKGRFTIARDNAKNTVYVQMNSLKPEDTAVYYCAKGTFDLHYRKRYNYWGQGTQVTVSS	low polyreactivity
QVQLVESGGGLVQAGGSLRLSCAASGRIFSRYTMGCYRQAPGKERELVAAISSRGGSTYYADSVKGRFTISRDNAKNTVYLQMNSLKPEDTAVYYCNTPSYSGSSPYDHWGQGTQVTVSS	high polyreactivity
QVQLVESGGGLVQAGGSLRLSCAASGRIFSSYAMGWNRQAPGKERELVAAITDGDSTNYADSVKGRFTIARDNAKNTDYFQMNSLKPEDTAVYYCAVDILWYYPPGNYYYSSYDYWGQGTQVTVSS	low polyreactivity
QVQLVESGGGLVQAGGSLRLSCAASGRIFSTNAMGWYRQAPGKEREFVAAISWIGGSTYYADSVKGRFTISRDNAKNTVYLQMNSLKPEDTAVYYCAAGVYDDYPWSYDIFNLYDYWGQGTQVTVSS	low polyreactivity
QVQLVESGGGLVQAGGSLRLSCAASGRIFSVNGMGWYRQAPGKERELVAAITYNGGRTYYADSVKGRITISRDNAKNTVYLQMNSLKPEDTAVYYCAVESVRHPLDWYYYWGQGTQVTVSS	low polyreactivity
QVQLVESGGGLVQAGGSLRLSCAASGRIFSVYAMGWYRQAPGKEREFVAAITKGGVGTYYADSVKGRFTISRDNAKNTVYLQMNSLKPEDTAVYYCAARHYYGADRYYSWGQGTLVTVSS	high polyreactivity
QVQLVESGGGLVQAGGSLRLSCAASGRIFSVYAMGWYRQAPGKEREFVASISWRGGRTYYADSVKGRFTISRDNAKNTVYLQMNSLKPEDTAVYYCNAPQRYWPPYGYWGQGTQVTVSS	high polyreactivity
QVQLVESGGGLVQAGGSLRLSCAASGRIFSVYAMGWYRQAPGKERELVAAITWTGGRTYYADSVKGRFTISRDNAKNTVYLQMNSLKPEDTAVYYCNKDWGRYRYDYWGQGTQVTVSS	high polyreactivity
QVQLVESGGGLVQAGGSLRLSCAASGRIFSVYGMGWYRQAPGKDRELVAAISSSAGSTNYADSVKGRFTISRDNAKNTVYLQMNSLKPEDTAVYYCAAYYRRVVYYPTAYYIRKYDYWGQGTQVTVSS	high polyreactivity
QVQLVESGGGLVQAGGSLRLSCAASGRIFSVYTMGWYRQAPGKERELVAGISRGGSTDYADSVKGRFTISRDNAKNTVYLQMNSLKPEDTAVYYCAATYTYRWYQFNFWGQGTQVTVSS	high polyreactivity
QVQLVESGGGLVQAGGSLRLSCAASGRIFSWYTMGWYRQAPGKERELVAGITWSGGSTYYADSVKGRFTISRDNAKNTVYLQMNSLKPEDTAVYYCAAGGVSFGYYKYYYWGQGTQVTVSS	high polyreactivity
QVQLVESGGGLVQAGGSLRLSCAASGRIFSWYTMGWYRQAPGKERELVAIISRSGGSTYYADSVKGRFTISRDNAKNTVYLQMNSLKPEDTAVYYCNARWSFSYTVWVDSYWGLDDYWGQGTQVTVSS	high polyreactivity
QVQLVESGGGLVQAGGSLRLSCAASGRIFSYAMGWYRQAPGKERELVAGSTYYADSVKGRFTISRDNAKNTVYLQMNSLKPEDTAVYYCNVGGYGLRGDYWGQGTQVTVSS	low polyreactivity
QVQLVESGGGLVQAGGSLRLSCAASGRIFSYNAMGLYRPAPVKERELFAAITFSGGGTYYADSVKGRFTISRDNAKNTVYLQMKSLKPEDTAVYYCNKVSYGYSTYGYWGQGTQVTVSS	low polyreactivity

Sequence	polyreactivity (PSR sort gate)
QVQLVESGGGLVQAGGSLRLSCAASGRIFSYNAMGWYRQAPGKEREFVAAIDWRAGSTYYADSVKGRFTISRDNAKKTVYLQMNSLKPEDTAVYYCAVEFGAYPFLYYYWGQGTQVTVSS	high polyreactivity
QVQLVESGGGLVQAGGSLRLSCAASGRIFSYNAMGWYRQAPGKERELVAAISYGGGRTYYADSVKGRFTISRDNAKNTVYLQMNSLKPEDTAVYYCAASQYRSPYPYRDYYTPDYDYWGQGTQVTVSS	high polyreactivity
QVQLVESGGGLVQAGGSLRLSCAASGRIFSYNAMGWYRQAPGKERELVAAISYGGGRTYYADSVKGRFTISRDNAKNTVYLQMNSLKPEDTAVYYCAATSSLGDFRYDYWRQGTQVTVSS	high polyreactivity
QVQLVESGGGLVQAGGSLRLSCAASGRIFSYYAMGWYRQAPGKERELVAAINWSGSSTYYADSVKGRFTISRDNAKNTVYLQMNSLKPEDTAVYYCAAGVPKNGQAGYDYWGQGTQVTVSS	high polyreactivity
QVQLVESGGGLVQAGGSLRLSCAASGRIFSYYAMGWYRQAPGKERELVAAISWNGGSTYYADSVKGRFTISRDNAKNTVYLQMKSLKPEDTAVYYCAAESYFNNWRNRYDYCGQGTQVTVSS	high polyreactivity
QVQLVESGGGLVQAGGSLRLSCAASGRIFSYYAMGWYRQAPGKERELVAAISWNGGSTYYADSVKGRFTISRDNAKNTVYLQMNSLKPEDTAVYYCNRLGYRTGYERDYWGQGTQVTVSS	high polyreactivity
QVQLVESGGGLVQAGGSLRLSCAASGRIFSYYAMGWYRQAPGKERELVAAISYSRTYYADSVKGRFTISRDNAKNTVLLQMNSLKPEDTAVYYCNVKSKYRYGYWGQGTQVTVSS	high polyreactivity
QVQLVESGGGLVQAGGSLRLSCAASGRIFSYYAMGWYRQAPGKERELVAAITWSGGRTYYADSVKGRFTISRDNAKNTVYLQMNSLKPEDTAVYYCAAQGSRWWGFDYWGQGTQVTVSS	high polyreactivity
QVQLVESGGGLVQAGGSLRLSCAASGRIFSYYAMGWYRQAPGKERELVARITSRGASTYYADSVKGRFTISRDNAKNTVYLQMNSLKPEDTAVYYCATDRYRIYPDYDYWGQGTQVTVSS	high polyreactivity
QVQLVESGGGLVQAGGSLRLSCAASGRIFSYYAMGWYRQAPGKERELVATINSGGSTNYADSVKRRFTISRDNAKNTVYLQMNSLKPEDTAVYYCAASPVWWSDYWGQGTQVTVSS	low polyreactivity
QVQLVESGGGLVQAGGSLRLSCAASGRIFSYYAMLWYRQAPGKERELVATINSGGSTNYADSVKGRFTISRDNAKNTVYLQMNSLKPEDTAVYYCAASPVWWYDNWGQGTQVTVSS	low polyreactivity
QVQLVESGGGLVQAGGSLRLSCAASGRIFSYYDMGWYRQAPGKERELVARISYSGDSTYYADSVKGRFTISRDNAKNTVYLQMNSLKPEDTAVYYCAADSITSKNQGLDYDYWGQGTQVTVSS	low polyreactivity
QVQLVESGGGLVQAGGSLRLSCAASGRIFSYYDMGWYRQAPGKERELVAVISSRGGSTFYADSVKGRFTISRDNAKNTVYLLMNSLKAEDTAVYDCASRSLYVGYDYWGQCTQVTVSS	high polyreactivity
QVQLVESGGGLVQAGGSLRLSCAASGRIFSYYTMGWYRQAPGKERELVAAISYRGGSTYADSVKGRFTISRDNAKNTVYLQMNSLKPEDTAVYYCAADDLSYVGYYYGYVDDDYWGQGTQVTVSS	high polyreactivity
QVQLVESGGGLVQAGGSLRLSCAASGRIFTANAMGWYRQAPGKERELVAAITTSDGTYYADSVKGRFTISRDNAKNTVYLQMNSLKPEDTAVYYCATDTATYPTAMDYWGQGTQVTVSS	low polyreactivity
QVQLVESGGGLVQAGGSLRLSCAASGRIFTAYAMGWYRQAPGKERELVARISKRGGSTYYADSVKGRFTISRDNAKNTVYLQMNSLKPEDTAVYYCAKSSWTFGAYNYWGQGTQVTVSS	high polyreactivity
QVQLVESGGGLVQAGGSLRLSCAASGRIFTAYYAMGWYRQAPGKERELVASISSSGTSTYADSVKGRFTISRDNAKNTVYLQMNSLKPEDTAVYYCATRKLRTRRYDYGYWGQGTQVTVSS	low polyreactivity
QVQLVESGGGLVQAGGSLRLSCAASGRIFTDYAMGWYRQAPGKEREFVAAINKSGGSTYYADSVKGRFTISRDNAKNTVYLQMNSLKPEDTAVYYCAKPHVIYPSYDYWGQGTQVTVSS	low polyreactivity
QVQLVESGGGLVQAGGSLRLSCAASGRIFTDYAMGWYRQAPGKERELVAAINFSGGSTYYADSVKGRFTISRDNAKNTVYLQMHSLKPEDTAVYYCAAQGYYDDMYYWGQGTQVTESS	high polyreactivity
QVQLVESGGGLVQAGGSLRLSCAASGRIFTDYAMGWYRQAPGKERELVASITERGGSTDYADSVKGRFTISRDNAKITVYLQMNSLKPEDTAVYYCNARDVTLWEDVYQQDGSGSWGLGTQVTVSS	low polyreactivity
